From patent US20240270821A1, “GIP/GLP1/GCG TRI-RECEPTOR AGONISTS AND USES THEREOF” (priority 2023, published 2024)
Starred links: 1 amine or outer side, 2 acyl side, 3 side chain; linkers in the order of their positions; H or OH if unused. Non-standard residues stand in square brackets, D forms with d. Groups on a side chain read outwards from the residue. No end group written: not given here. *: point of attachment. C18 diacid = O=C(O)CCCCCCCCCCCCCCCCC(=O)*; γGlu = O=C(O)[C@H](CCC(=O)[*:2])N[*:1]; αMeL = CC(C)C[C@](C)(N)C(=O)O; Dab = NCC[C@H](N)C(=O)O; AEEA = NCCOCCOCC(=O)O; Aib = CC(C)(N)C(=O)O

T1: human GIP receptor (human) (UniProt P48546)
T1 sequence (looked up): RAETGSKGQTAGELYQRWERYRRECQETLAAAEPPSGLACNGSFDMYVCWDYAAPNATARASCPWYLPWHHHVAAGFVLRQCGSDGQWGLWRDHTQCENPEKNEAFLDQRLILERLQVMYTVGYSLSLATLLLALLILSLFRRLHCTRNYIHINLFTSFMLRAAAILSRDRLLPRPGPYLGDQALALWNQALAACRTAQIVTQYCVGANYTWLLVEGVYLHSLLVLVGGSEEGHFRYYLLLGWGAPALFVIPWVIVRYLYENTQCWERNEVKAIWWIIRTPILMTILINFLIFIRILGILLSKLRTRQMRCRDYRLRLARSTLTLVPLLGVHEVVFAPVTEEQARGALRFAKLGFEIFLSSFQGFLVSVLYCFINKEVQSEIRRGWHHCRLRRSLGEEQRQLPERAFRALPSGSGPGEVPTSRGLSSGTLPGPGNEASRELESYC

B1: Example 135 (peptide)
chain: YXQGTFTSDFSXXLDKKAQXAFIEYLLEAGPSSGEPPPSGE
modifications: synthetic construct; SITE 2: note = 2-Aminoisobutyric Acid; SITE 12: note = L-ornithine; SITE 13: note = alpha-methyl-leucine; SITE 17: note = Lysine is chemically modified through conjugation of the epsilon-amino group of the Lysine side chain with (2-[2-(2-Amino-ethoxy)-ethoxy]-acetyl)-(gamma-Glu)
B2: Example 1236 (peptide)
chain: YXQGTXTSDXSIXLDXKAAXAFIEXLLEGGPSSGEPPPS
modifications: synthetic construct; SITE 2: note = 2-Aminoisobutyric Acid; SITE 6: note = alpha-methyl-2-fluoro-L-phenylalanine; SITE 10: note = 3-(4-Pyridyl)-L-alanine; SITE 13: note = alpha-methyl-leucine; SITE 16: note = L-ornithine; SITE 17: note = Lysine is chemically modified through conjugation of the epsil
B3: Example 1213 (peptide)
chain: YXQGTXTSDXXIXLDXXAQXEFIEXLIEGGPSSGAPPPSGGGE
modifications: synthetic construct; SITE 2: note = 2-Aminoisobutyric Acid; SITE 6: note = alpha-methyl-2-fluoro-L-phenylalanine; SITE 10: note = 3-(4-Pyridyl)-L-alanine; SITE 11: note = alpha-methyl-L-serine; SITE 13: note = alpha-methyl-leucine; SITE 16: note = L-ornithine; SITE 17: note = Ornithine is chemically
B4: Example 1234 (peptide)
chain: YXQGTXTSDXXIXLDXQAQXEFIEXLIEGGPSSGAPPPSGGGE
modifications: not fully specified; no fatty acid conjugated; synthetic construct; SITE 2: note = 2-Aminoisobutyric Acid; SITE 6: note = alpha-methyl-2-fluoro-L-phenylalanine; SITE 10: note = …; SITE 11: note = alpha-methyl-L-serine; SITE 13: note = alpha-methyl-leucine; SITE 16: note = L-ornithine; SITE 20: note = 3-(4-Pyridyl)-L-alanine
B5: Example 123 (peptide)
chain: YXQGTFTSDFSXXLDKKAQXAFIEWLLEGGESSGEPPPSGE
modifications: synthetic construct; SITE 2: note = 2-Aminoisobutyric Acid; SITE 12: note = L-ornithine; SITE 13: note = alpha-methyl-leucine; SITE 17: note = Lysine is chemically modified through conjugation of the epsilon-amino group of the Lysine side chain with (2-[2-(2-Amino-ethoxy)-ethoxy]-acetyl)-(gamma-Glu)
B6: Example 124 (peptide)
chain: YXQGTFTSDFSXXLDKKAQXAFIEWLLEGGHSSGEPPPSGE
modifications: synthetic construct; SITE 2: note = 2-Aminoisobutyric Acid; SITE 12: note = L-ornithine; SITE 13: note = alpha-methyl-leucine; SITE 17: note = Lysine is chemically modified through conjugation of the epsilon-amino group of the Lysine side chain with (2-[2-(2-Amino-ethoxy)-ethoxy]-acetyl)-(gamma-Glu)
B7: Example 128 (peptide)
chain: YXQGTFTSDFSXXLDKKAQXAFIEYLLEAGPSSGAPPPSGE
modifications: synthetic construct; SITE 2: note = 2-Aminoisobutyric Acid; SITE 12: note = L-ornithine; SITE 13: note = alpha-methyl-leucine; SITE 17: note = Lysine is chemically modified through conjugation of the epsilon-amino group of the Lysine side chain with (2-[2-(2-Amino-ethoxy)-ethoxy]-acetyl)2-(gamma-Glu)
B8: Example 1212 (peptide)
chain: YXQGTXTSDXXIXLDXXAQXEFIEXLIEGGPSSGAPPPSGSE
modifications: synthetic construct; SITE 2: note = 2-Aminoisobutyric Acid; SITE 6: note = alpha-methyl-2-fluoro-L-phenylalanine; SITE 10: note = 3-(4-Pyridyl)-L-alanine; SITE 11: note = alpha-methyl-L-serine; SITE 13: note = alpha-methyl-leucine; SITE 16: note = L-ornithine; SITE 17: note = Ornithine is chemically
B9: Example 1233 (peptide)
chain: YXQGTXTSDXXIXLDXQAQXEFIEXLIEGGPSSGAPPPSGSE
modifications: not fully specified; synthetic construct; SITE 2: note = 2-Aminoisobutyric Acid; SITE 6: note = alpha-methyl-2-fluoro-L-phenylalanine; SITE 10: note = 3-(4-Pyridyl)-L-alanine; SITE 11: note = alpha-methyl-L-serine; SITE 13: note = alpha-methyl-leucine; SITE 16: note = L-ornithine; SITE 20: note = 3-(4-Pyridyl)-L-alanine
B10: Example 47 (peptide)
chain: YXQGTFTSDFSKXLDKKAQXAFIEYLLEGAPSSGAPPPSEG
modifications: synthetic construct; SITE 2: note = 2-Aminoisobutyric Acid; SITE 13: note = alpha-methyl-leucine; SITE 17: note = Lysine is chemically modified through conjugation of the epsilon-amino group of the Lysine side chain with (2-[2-(2-Amino-ethoxy)-ethoxy]-acetyl)-(gamma-Glu)-CO-(CH2) 18-CO2H; SITE 20: n
B11: Example 1210 (peptide)
chain: YXQGTXTSDXXIXLDXXAQXEFIEXLVEGGPSSGAPPPSGS
modifications: synthetic construct; SITE 2: note = 2-Aminoisobutyric Acid; SITE 6: note = alpha-methyl-2-fluoro-L-phenylalanine; SITE 10: note = 3-(4-Pyridyl)-L-alanine; SITE 11: note = alpha-methyl-L-serine; SITE 13: note = alpha-methyl-leucine; SITE 16: note = L-ornithine; SITE 17: note = Ornithine is chemically
B12: Example 1211 (peptide)
chain: YXQGTXTSDXXIXLDXXAQXEFIEXLIEGGPSSGAPPPSGS
modifications: synthetic construct; SITE 2: note = 2-Aminoisobutyric Acid; SITE 6: note = alpha-methyl-2-fluoro-L-phenylalanine; SITE 10: note = 3-(4-Pyridyl)-L-alanine; SITE 11: note = alpha-methyl-L-serine; SITE 13: note = alpha-methyl-leucine; SITE 16: note = L-ornithine; SITE 17: note = Ornithine is chemically

Assays:
Assay in all cases: cell-based or functional assay
[1] = target: human glucagon receptor (human) (UniProt P47871)
[2] = target: T1, human GIP receptor (human)
hGLP-1R = hGLP-1R (Homo sapiens, UniProt P43220)
hGLP-1R, sequence (P43220 24-463): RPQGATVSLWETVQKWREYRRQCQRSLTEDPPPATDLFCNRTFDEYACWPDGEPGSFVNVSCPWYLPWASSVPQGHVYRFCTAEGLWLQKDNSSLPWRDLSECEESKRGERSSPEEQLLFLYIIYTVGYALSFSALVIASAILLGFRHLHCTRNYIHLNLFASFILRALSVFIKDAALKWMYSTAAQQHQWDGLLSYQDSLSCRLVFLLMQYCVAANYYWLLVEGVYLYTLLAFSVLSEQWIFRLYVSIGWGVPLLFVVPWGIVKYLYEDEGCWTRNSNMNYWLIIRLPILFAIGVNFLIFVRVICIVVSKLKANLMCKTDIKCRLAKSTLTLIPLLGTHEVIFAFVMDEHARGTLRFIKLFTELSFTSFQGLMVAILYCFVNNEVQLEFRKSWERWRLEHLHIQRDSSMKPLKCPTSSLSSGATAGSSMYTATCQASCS

human glucagon receptor (human), sequence (P47871 26-477): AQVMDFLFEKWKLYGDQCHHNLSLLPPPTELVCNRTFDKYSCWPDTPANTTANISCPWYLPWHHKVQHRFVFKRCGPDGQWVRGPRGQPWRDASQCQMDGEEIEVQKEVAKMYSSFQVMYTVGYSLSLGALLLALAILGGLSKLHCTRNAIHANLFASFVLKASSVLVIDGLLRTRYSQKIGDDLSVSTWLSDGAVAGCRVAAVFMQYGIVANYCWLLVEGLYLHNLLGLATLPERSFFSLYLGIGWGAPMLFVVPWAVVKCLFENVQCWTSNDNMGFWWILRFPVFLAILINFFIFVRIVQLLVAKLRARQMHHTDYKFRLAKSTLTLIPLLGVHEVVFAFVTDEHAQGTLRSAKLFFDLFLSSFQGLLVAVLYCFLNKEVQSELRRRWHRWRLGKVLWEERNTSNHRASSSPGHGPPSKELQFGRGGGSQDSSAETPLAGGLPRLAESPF

Binder	Relative cAMP EC50 [1]	cAMP Rel EC50, nM (in the presence of 1% HSA) [1]	Relative cAMP EC50 [2]	cAMP Rel EC50, nM (in the presence of 1% HSA) [2]	Relative cAMP EC50 (hGLP-1R)	cAMP Rel EC50, nM (in the presence of 1% HSA) (hGLP-1R)	cAMP Rel EC50 (1% HSA) [1]	cAMP Rel EC50 (1% HSA) [2]	cAMP Rel EC50 (1% HSA) (hGLP-1R)
B1	2.53 nM	557 nM	0.246 nM	23.4 nM	3.3 nM	472 nM			
B2	0.947 nM		0.052 nM		0.304 nM		502 nM	11.9 nM	95.8 nM
B3	1.69 nM		0.00721 nM		0.423 nM		268 nM	0.616 nM	44 nM
B4	11.6 nM		0.0135 nM		1.17 nM		11.7 nM	0.011 nM	1.15 nM
B5	4.55 nM	1740 nM	0.531 nM	94.6 nM	4.82 nM	1500 nM			
B6	2.92 nM	567 nM	0.344 nM	54.7 nM	6.14 nM	801 nM			
B7	6.76 nM	1090 nM	0.307 nM	24.3 nM	3.5 nM	679 nM			
Y[Aib]QGTFTSDFS[Dab][αMeL]LDKK([AEEA-γGlu-C18 diacid])AQ[Aib]AFIEYLLE[Aib]GPSSGAPPPSGS-NH2 (ends and bridges not checked) [Example 133]	1.64 nM	642 nM	0.15 nM	23.1 nM	3.6 nM	1180 nM			
B8	1.71 nM		0.00702 nM		0.357 nM		230 nM	0.614 nM	38.2 nM
B9	9.48 nM		0.012 nM		1.09 nM		9.9 nM	0.00988 nM	1.06 nM
B10	5.61 nM		0.388 nM		3.4 nM				
B11	2.25 nM		0.00704 nM		0.375 nM		288 nM	0.635 nM	38.1 nM
B12	1.45 nM		0.00592 nM		0.276 nM		211 nM	0.489 nM	33.2 nM
